Earlier results in article PMC9252436.
pKd: −log10 of the molar value.

Molecular target: CD47 (Homo sapiens) (UniProt Q08722)
Chain of UniProt Q08722 (Q08722 19-323): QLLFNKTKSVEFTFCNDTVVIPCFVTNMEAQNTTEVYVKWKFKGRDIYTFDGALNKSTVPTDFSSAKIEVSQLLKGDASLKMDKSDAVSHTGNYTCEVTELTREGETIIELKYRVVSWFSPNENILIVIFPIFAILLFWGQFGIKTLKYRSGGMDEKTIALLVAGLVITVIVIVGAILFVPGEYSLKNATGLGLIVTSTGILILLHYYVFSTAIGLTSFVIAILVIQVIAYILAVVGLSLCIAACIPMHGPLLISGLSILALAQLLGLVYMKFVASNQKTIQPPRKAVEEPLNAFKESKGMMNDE

pKd: 7.80
Substance: SIRPα (from UniProt P78324)
